The record followed here is publication PMC7525818 (Molecular Biology of the Cell, 2020).

This data set concerns the molecule itself. The experiment in a line: cross-linking.

B1: recombinant full-length human villin (GST tag cleaved) (natural protein, UniProt P09327 1-827, looked up)
chain: MTKLSAQVKGSLNITTPGLQIWRIEAMQMVPVPSSTFGSFFDGDCYIILAIHKTASSLSYDIHYWIGQDSSLDEQGAAAIYTTQMDDFLKGRAVQHREVQGNESEAFRGYFKQGLVIRKGGVASGMKHVETNSYDVQRLLHVKGKRNVVAGEVEMSWKSFNRGDVFLLDLGKLIIQWNGPESTRMERLRGMTLAKEIRDQERGGRTYVGVVDGENELASPKLMEVMNHVLGKRRELKAAVPDTVVEPALKAALKLYHVSDSEGNLVVREVATRPLTQDLLSHEDCYILDQGGLKIYVWKGKKANEQEKKGAMSHALNFIKAKQYPPSTQVEVQNDGAESAVFQQLFQKWTASNRTSGLGKTHTVGSVAKVEQVKFDATSMHVKPQVAAQQKMVDDGSGEVQVWRIENLELVPVDSKWLGHFYGGDCYLLLYTYLIGEKQHYLLYVWQGSQASQDEITASAYQAVILDQKYNGEPVQIRVPMGKEPPHLMSIFKGRMVVYQGGTSRTNNLETGPSTRLFQVQGTGANNTKAFEVPARANFLNSNDVFVLKTQSCCYLWCGKGCSGDEREMAKMVADTISRTEKQVVVEGQEPANFWMALGGKAPYANTKRLQEENLVITPRLFECSNKTGRFLATEIPDFNQDDLEEDDVFLLDVWDQVFFWIGKHANEEEKKAAATTAQEYLKTHPSGRDPETPIIVVKQGHEPPTFTGWFLAWDPFKWSNTKSYEDLKAELGNSRDWSQITAEVTSPKVDVFNANSNLSSGPLPIFPLEQLVNKPVEELPEGVDPSRKEEHLSIEDFTQAFGMTPAAFSALPRWKQQNLKKEKGLF
In the case of B1, the “stoichiometry N” value came to 2.

B2: recombinant full-length human advillin (GST tag cleaved) (natural protein, UniProt O75366 1-819, looked up)
chain: MPLTSAFRAVDNDPGIIVWRIEKMELALVPVSAHGNFYEGDCYVILSTRRVASLLSQDIHFWIGKDSSQDEQSCAAIYTTQLDDYLGGSPVQHREVQYHESDTFRGYFKQGIIYKQGGVASGMKHVETNTYDVKRLLHVKGKRNIRATEVEMSWDSFNRGDVFLLDLGKVIIQWNGPESNSGERLKAMLLAKDIRDRERGGRAKIGVIEGDKEAASPELMKVLQDTLGRRSIIKPTVPDEIIDQKQKSTIMLYHISDSAGQLAVTEVATRPLVQDLLNHDDCYILDQSGTKIYVWKGKGATKAEKQAAMSKALGFIKMKSYPSSTNVETVNDGAESAMFKQLFQKWSVKDQTMGLGKTFSIGKIAKVFQDKFDVTLLHTKPEVAAQERMVDDGNGKVEVWRIENLELVPVEYQWYGFFYGGDCYLVLYTYEVNGKPHHILYIWQGRHASQDELAASAYQAVEVDRQFDGAAVQVRVRMGTEPRHFMAIFKGKLVIFEGGTSRKGNAEPDPPVRLFQIHGNDKSNTKAVEVPAFASSLNSNDVFLLRTQAEHYLWYGKGSSGDERAMAKELASLLCDGSENTVAEGQEPAEFWDLLGGKTPYANDKRLQQEILDVQSRLFECSNKTGQFVVTEITDFTQDDLNPTDVMLLDTWDQVFLWIGAEANATEKESALATAQQYLHTHPSGRDPDTPILIIKQGFEPPIFTGWFLAWDPNIWSAGKTYEQLKEELGDAAAIMRITADMKNATLSLNSNDSEPKYYPIAVLLKNQNQELPEDVNPAKKENYLSEQDFVSVFGITRGQFAALPGWKQLQMKKEKGLF
B2: the binding result is on record as “binds”.
